Experimental data as given in PMC6343935.

Target: Taggert virus (TAGV) viral ovarian tumor domain protease (vOTU) (Taggert virus (TAGV))
Assay: ITC

## ubiquitin (Ub), wild type (from UniProt P0CG48 1-76) (natural protein)
  dH: -4.68 kcal/mol
  stoichiometry N: 1.34 sites
